Substrate in data set [1]: OCC1=C[C@H](N[C@H]2C[C@H](CO)[C@@H](O[C@@H]3O[C@H](CO)[C@@H](O)[C@H](O)[C@H]3O)[C@H](O)[C@H]2O)[C@H](O)[C@@H](O)[C@@H]1O
Description: purified protein. The class given is biochemical, Streptomyces hygroscopicus. Conditions: apparent; co-substrate α-ketoglutarate, Fe(II); hydroxylation at C-6'.

Substrate in data set [2]: O=C(O)CCC(=O)C(=O)O
Description: purified protein. It counts as biochemical, Streptomyces hygroscopicus. Conditions: apparent; co-substrate validamycin A, Fe(II).

Drawing on paper PMC3517013, this text covers Km and kcat for one protein.

B1: VldW (Streptomyces hygroscopicus subsp. limoneus) (protein)
chain: MTGSVPIVDLEAWRAADEENRASLAEIIDGALHTVGTFLLAGHGVPAELTARMRTAGRSFFDLPWEKKEPHAVQRPHDNGWRGLVKHRTDTIEGTGGAPDLHEAFHMGPTHRTGDDAFDALYYPANKWPAELPELRETALAYTAHMTRVAGAVMEMLAGVLGLEPAFFTSRCEHATWTQSVNWYPSLDTVGQTAEGQMRVGPHTDFGTITLLDRQQGVSGLEVWSEEDGWFAPPFVEGTLLVNLGDLMHQWTDGRWRSLRHRVLAPSASAPQEELVSLVYFFDADPEAELVPLAAPVGGGAGMPTVNVGETILKKNIQMLTDLKGHGLFQGELSLSRPGSADSPGSSPADDHPSRPGRHPAQGPQ
On to B1, for which the Km was determined as 303 ± 36 µM in the data set “purified protein [1]” and 19 ± 3.5 µM in “purified protein [2]”. Also, the turnover number (kcat) in the data set “purified protein [1]” and in “purified protein [2]” was 0.97 ± 0.14 min⁻¹ each time.
